Data published in publication PMC10249358, “Elucidation of Short Linear Motif-Based Interactions of the FERM Domains of Ezrin, Radixin, Moesin, and Merlin” (Biochemistry, 2023).

target: moesin FERM domain, P26038; assay: FP; details: modification not given
Sequence (P26038 2-295): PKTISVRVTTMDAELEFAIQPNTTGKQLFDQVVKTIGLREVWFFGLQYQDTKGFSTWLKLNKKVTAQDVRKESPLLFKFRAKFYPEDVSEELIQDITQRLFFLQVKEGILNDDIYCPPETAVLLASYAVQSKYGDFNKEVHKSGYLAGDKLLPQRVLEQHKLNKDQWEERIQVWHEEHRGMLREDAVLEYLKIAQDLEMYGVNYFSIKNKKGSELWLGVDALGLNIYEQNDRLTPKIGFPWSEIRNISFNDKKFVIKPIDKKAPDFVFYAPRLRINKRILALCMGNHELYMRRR

| Kd [nM] | Binder |
| --- | --- |
| 100 | TNGYYSVNTFKEHHST |
| 50000 | LEFADFYAFRSSYPDH |
| 2800 | LEFADFYDFRSSAPDH |
| 110 | TNGAYSVNTFKEHHST |
| 85000 | LEFADAYDFRSSYPDH |
| 2300 | LEAADFYDFRSSYPDH |
